According to publication PMC9518701, “Preclinical characterization of amubarvimab and romlusevimab, a pair of non-competing neutralizing monoclonal antibody cocktail, against SARS-CoV-2” (Frontiers in Immunology, 2022):
Changes are numbered by the printed parent chain. Numbers in names are those of the source.

B1: romlusevimab (BRII-198) (antibody, V domains shown)
VH: QVQLVQSGSELKKPGASVKVSCKASGYTFTTYVMNWVRQAPGQGLEWMGWINTNTGNPTYAQGFTGRFVFSLDTSVSTASLQISSLKAEDTAVYYCSSEITTLGGMDVWGQGTTVTVSS
VL: SYVLTQPPSVSVAPGKTARITCGGNNIGSKSVHWYQQKPGQAPVLVIYYDSDRPSGIPERFSGSNSGNTATLTISGVEAGDEADYYCQVWDSISDHRVFGGGTKLTVL
B2: P2B-1G5 (precursor of romlusevimab) (antibody, V domains shown)
VH: B1 VH with S98C
VL: B1 VL

Target: T1, SARS-CoV-2 spike protein receptor binding domain (RBD) (SARS-CoV-2, wild type (Wuhan-Hu-1 …, UniProt P0DTC2))
T1 construct: also called SARS-CoV-2 RBD
Experiment: SPR
Settings: both partners purified

| Binder | Kd [nM] | binding result |
| --- | --- | --- |
| B1 | 0.56 | – |
| B2 | – | binds |
